Measured values: IntAct's records for PubMed 17012248

B1: Sialic acid-binding Ig-like lectin 14 (Homo sapiens), Q08ET2 (parent)
chain: MLPLLLLPLLWGGSLQEKPVYELQVQKSVTVQEGLCVLVPCSFSYPWRSWYSSPPLYVYWFRDGEIPYYAEVVATNNPDRRVKPETQGRFRLLGDVQKKNCSLSIGDARMEDTGSYFFRVERGRDVKYSYQQNKLNLEVTALIEKPDIHFLEPLESGRPTRLSCSLPGSCEAGPPLTFSWTGNALSPLDPETTRSSELTLTPRPEDHGTNLTCQVKRQGAQVTTERTVQLNVSYAPQNLAISIFFRNGTGTALRILSNGMSVPIQEGQSLFLACTVDSNPPASLSWFREGKALNPSQTSMSGTLELPNIGAREGGEFTCRVQHPLGSQHLSFILSVQRSSSSCICVTEKQQGSWPLVLTLIRGALMGAGFLLTYGLTWIYYTRCGGPQQSRAERPG

Variants of: B1
Conditions: with tyobp_human TYROBP

| Variant | effect of a mutation on the interaction |
| --- | --- |
| MLPLLLLPLLWGGSLQEKPVYELQVQKSVTVQEGLCVLVPCSFSYPWRSWYSSPPLYVYWFRDGEIPYYAEVVATNNPDRRVKPETQGRFRLLGDVQKKNCSLSIGDARMEDTGSYFFRVERGRDVKYSYQQNKLNLEVTALIEKPDIHFLEPLESGRPTRLSCSLPGSCEAGPPLTFSWTGNALSPLDPETTRSSELTLTPRPEDHGTNLTCQVKRQGAQVTTERTVQLNVSYAPQNLAISIFFRNGTGTALRILSNGMSVPIQEGQSLFLACTVDSNPPASLSWFREGKALNPSQTSMSGTLELPNIGAREGGEFTCRVQHPLGSQHLSFILSVQRSSSSCICVTEKQQGSWPLVLTLIAGALMGAGFLLTYGLTWIYYTRCGGPQQSRAERPG [R362A] | decreasing interaction |
